# Assay results taken from the supplement of paper PMC9112550, “Optimization of the antimicrobial peptide Bac7 by deep mutational scanning” (BMC Biology, 2022).
# System: Escherichia coli TOP10
# Test: shrunken log2 fold change of peptide-encoding DNA abundance (4.5 h post-induction vs induction); higher = less antimicrobial activity (less host growth inhibition)
# Conditions: time post-induction: 4.5 h; library: site-saturation at positions 5, 18, 19, 20
# 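Note: peptides expressed intracellularly from a pBAD plasmid library in pooled LB shake-flask culture, induced with 0.3% L-arabinose, DNA abundance read by NGS, three biological replicates, DESeq2 with apeglm shrinkage.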
row,Sequence,shrunken log2 fold change
1,RRIRHRPPRLPRPRPRPHVWPRP,0.205
2,RRIRVRPPRLPRPRPRPQYAPRP,-0.193
3,RRIRERPPRLPRPRPRPNSAPRP,-0.503
4,RRIRFRPPRLPRPRPRPEEDPRP,-0.185
5,RRIRRRPPRLPRPRPRPSQWPRP,0.264
6,RRIRCRPPRLPRPRPRPPWMPRP,0.248
7,RRIRRRPPRLPRPRPRPKQKPRP,0.264
8,RRIRTRPPRLPRPRPRPDWVPRP,0.0189
9,RRIRGRPPRLPRPRPRPCYYPRP,-0.00676
10,RRIRCRPPRLPRPRPRPTIYPRP,-0.644
11,RRIRFRPPRLPRPRPRPFSCPRP,-0.599
12,RRIRNRPPRLPRPRPRPGHTPRP,-0.175
13,RRIRHRPPRLPRPRPRPCDTPRP,-0.214
14,RRIRYRPPRLPRPRPRPHDNPRP,-1.04
15,RRIRQRPPRLPRPRPRPGCGPRP,0.442
16,RRIRFRPPRLPRPRPRPYGTPRP,-0.81
17,RRIRTRPPRLPRPRPRPPYGPRP,-0.195
18,RRIRSRPPRLPRPRPRPDFWPRP,0.506
19,RRIRCRPPRLPRPRPRPHHHPRP,-0.815
20,RRIRSRPPRLPRPRPRPDFPPRP,0.0768
21,RRIRVRPPRLPRPRPRPPHDPRP,0.65
22,RRIRTRPPRLPRPRPRPMQQPRP,0.065
23,RRIRGRPPRLPRPRPRPNQYPRP,-0.166
24,RRIRTRPPRLPRPRPRPWPMPRP,0.44
25,RRIRLRPPRLPRPRPRPGRVPRP,0.242

row,Sequence,shrunken log2 fold change
1,RRIRTRPPRLPRPRPRPKGSPRP,-0.0414
2,RRIRNRPPRLPRPRPRPHHYPRP,-0.619
3,RRIRNRPPRLPRPRPRPPELPRP,0.142
4,RRIRIRPPRLPRPRPRPLMAPRP,-0.408
5,RRIRGRPPRLPRPRPRPLCQPRP,0.712
6,RRIRVRPPRLPRPRPRPEFQPRP,-0.0311
7,RRIRIRPPRLPRPRPRPYAPPRP,-0.242
8,RRIRVRPPRLPRPRPRPDKWPRP,-0.151
9,RRIRKRPPRLPRPRPRPKPWPRP,0.526
10,RRIRERPPRLPRPRPRPHADPRP,0.0454
11,RRIRRRPPRLPRPRPRPDHFPRP,0.0408
12,RRIRTRPPRLPRPRPRPHVYPRP,-0.496
13,RRIRFRPPRLPRPRPRPVLGPRP,-0.127
14,RRIRRRPPRLPRPRPRPFTWPRP,-0.126
15,RRIRRRPPRLPRPRPRPVCQPRP,0.179
16,RRIRSRPPRLPRPRPRPTISPRP,-0.655
17,RRIRNRPPRLPRPRPRPKGNPRP,-0.00941
18,RRIRHRPPRLPRPRPRPNMTPRP,0.0729
19,RRIRCRPPRLPRPRPRPPHVPRP,0.385
20,RRIRYRPPRLPRPRPRPEFTPRP,-0.0369
21,RRIRYRPPRLPRPRPRPNTKPRP,-0.0891
22,RRIRWRPPRLPRPRPRPFNRPRP,-0.0167
23,RRIRFRPPRLPRPRPRPDTMPRP,-0.0817
24,RRIRLRPPRLPRPRPRPYEIPRP,-0.012
25,RRIRTRPPRLPRPRPRPYEWPRP,-0.139

row,Sequence,shrunken log2 fold change
1,RRIRIRPPRLPRPRPRPVWPPRP,0.0939
2,RRIRDRPPRLPRPRPRPFAHPRP,0.228
3,RRIRQRPPRLPRPRPRPTMYPRP,-0.352
4,RRIRFRPPRLPRPRPRPCWHPRP,-0.259
5,RRIRIRPPRLPRPRPRPNHSPRP,-0.639
6,RRIRQRPPRLPRPRPRPRSGPRP,0.162
7,RRIRKRPPRLPRPRPRPAENPRP,0.0163
8,RRIRGRPPRLPRPRPRPFYRPRP,-0.26
9,RRIRKRPPRLPRPRPRPMFKPRP,-0.0779
10,RRIRWRPPRLPRPRPRPWAYPRP,-0.502
11,RRIRCRPPRLPRPRPRPEWDPRP,0.309
12,RRIRNRPPRLPRPRPRPHDCPRP,-0.124
13,RRIRMRPPRLPRPRPRPVLWPRP,0.847
14,RRIRVRPPRLPRPRPRPEVRPRP,0.0429
15,RRIRRRPPRLPRPRPRPHTLPRP,-0.182
16,RRIRQRPPRLPRPRPRPYSDPRP,-0.028
17,RRIRIRPPRLPRPRPRPTLEPRP,2.35
18,RRIRGRPPRLPRPRPRPAGIPRP,0.207
19,RRIRWRPPRLPRPRPRPNDGPRP,-0.00211
20,RRIRRRPPRLPRPRPRPGRYPRP,0.218
21,RRIRRRPPRLPRPRPRPHTRPRP,0.145
22,RRIRHRPPRLPRPRPRPTWRPRP,0.381
23,RRIRSRPPRLPRPRPRPTIWPRP,0.393
24,RRIRYRPPRLPRPRPRPISRPRP,-0.113
25,RRIRQRPPRLPRPRPRPGFWPRP,0.353
